Measured values from the supplement of paper PMC9170038.

Test system: MS2 coat protein
Assay: apparent KD of MS2 coat protein; designed switch direction (-1 OFF switch, 1 ON switch): -1; higher = weaker reporter binding
Method in brief: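 An oligonucleotide input, 200 uM small-molecule ligand, or no input was present during titration of SNAP-549-labelled MS2 coat protein, which was doubled from 0.7 or 1.5 nM to 3 µM. Designed RNA switches had been transcribed on Illumina chips by stalled E. coli RNA polymerase. Apparent KD per design is the median over clusters of curves fitted to normalised cluster fluorescence.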

[1] = input ligand: microRNA oligo, concentration not stated
[2] = Eterna round: R95, input ligand: FMN 200 uM
[3] = Eterna round: R95, input ligand: microRNA oligo, concentration not stated
[4] = Eterna round: R95, input ligand: none

Sequence	apparent KD of MS2 coat protein (input ligand: FMN 200 uM)	apparent KD of MS2 coat protein (input ligand: none)	apparent KD of MS2 coat protein [1]	apparent KD of MS2 coat protein [2]	apparent KD of MS2 coat protein [3]	apparent KD of MS2 coat protein [4]
GCACUGGCAGGAUAUACAUGAGGAUCACCCAUGUGAUCCCUUAAGUACAAAAGUACUAGUAGAAGGGCCUGUGC [Omei Ex3 Model Bachelor's Dilema v46] (Eterna round: R97, puzzle: Exclusion 3)	307 nM	785 nM	–	–	–	–
GCAGAUGUAGUGAGGAUAUGCUCUACCUCGGUAGAGCAGAAGGCACAUGAGGAUCACCCAUGUGAUUCAUCUGC [Omei Ex4B B7] (Eterna round: R97, puzzle: Brourd's mod of Exclusion 4)	211 nM	28.6 nM	–	–	–	–
GCAGCAAACUCUAUUAAAACCACAUGAGGAUCACCCAUGUCUCAGGAUAUGGUCUGGAUUACAGGCCAGAAGGGAGAAAGCUGC [Eli exng3 - 054] (Eterna round: R96, puzzle: Exclusion NG 3)	15 nM	15.1 nM	10.9 nM	–	–	–
GCAGCAUAGUAUACUUACUGUUACAUGAGGAUCACCCAUGUACAGGAUAUGGUCUGGAUUACAGGCCAGAAGGGUACAAGCUGC [Eli exng3 - 024] (Eterna round: R96, puzzle: Exclusion NG 3)	10.3 nM	11.7 nM	8.12 nM	–	–	–
GCAGCAUAGUCGGAAACGACAGAACAUGAGGAUCACCCAUGUUAGGAUAUGGUCUGGAUUACAGGCCAGAAGGGACAAAGCUGC [Eli exng3 - 009] (Eterna round: R96, puzzle: Exclusion NG 3)	34.8 nM	39.9 nM	29.7 nM	–	–	–
GCAGCUGCUCUAGGAUAUAUUUUAGCACAUGAGGAUCACCCAUGUGGGACCACAACAGCGCAAGAAUAGAAGGAGACAGCAGUA [Eternabot solution 32] (Eterna round: R96, puzzle: Exclusion NG 2)	506 nM	129 nM	125 nM	–	–	–
GCAUCCAAAGUGAGGAUAUACCUCUGGAUACAGAGGUAGAAGGCACAUGAGGAUCACCCAUGUUUCUAGGAUGC [Fiskers BMX 4 - 37] (puzzle: Brourd's mod of Exclusion 4)	–	–	–	21.2 nM	13.3 nM	13.9 nM
GCAUCGGCAGGAUAUACGCCGUAUGACAUGAGGAUCACCCAUGUUCCCGAGUCACAGAAAGUAGAAGGGCUGGAUA [Eternabot (L2) Solution 70] (Eterna round: R97, puzzle: Exclusion 5)	236 nM	182 nM	–	–	–	–
GCAUUUUGGUCGUCUUAUAACAUGAGGAUCACCCAUGUGUUGAGCCCAACUUAUUGUACUCAUGCUAUGGCCUGAUG [Eternabot (L2) Solution 27] (Eterna round: R97, puzzle: Sensor, turn-off variant 1)	81.2 nM	84.2 nM	–	–	–	–
GCCAGAGCAGGAUAUUCAUUAUAUCACAUGAGGAUCACCCAUGUCCAGCGAAAGCUGGAGGGAGAAGGGCUCUGGC [Fiskers Ex 5 - 24] (puzzle: Exclusion 5)	–	–	–	102 nM	225 nM	140 nM
GCCAGAGGAGGAUAUCUAAUAUAUCACAUGAGGAUCACCCAUGUCCAGCGAAAGCUGGAGGGAGAAGGCCUCUGGC [Fiskers Ex 5 - 23] (Eterna round: R96, puzzle: Exclusion 5)	74.8 nM	252 nM	172 nM	–	–	–
GCCAGAGGAGGAUAUCUAAUAUAUCACAUGAGGAUCACCCAUGUCCAGCGAAAGCUGGAGGGAGAAGGCCUCUGGC [Fiskers Ex 5 - 23] (puzzle: Exclusion 5)	–	–	–	46 nM	98.2 nM	78.2 nM
GCCCGGCGUGUAGGAUAUGGUUCCGUUUCGGUUCCAGAAGGACAUGAGGAUACAUGAGGAUCACCCAUGUGGUCGUCACCGGGC [salish99_ExNG1_r04_402] (Eterna round: R96, puzzle: Exclusion NG 1)	37.4 nM	38.7 nM	26 nM	–	–	–
GCCCGGGCAGGAUAUACAAUGAAGUUGAGAAAUCGGCUUCGACAUGAGGAUCACCCAUGUAGAAGGGCCCGGGC [-36.9, -34.6 kcal, A 28% 3] (Eterna round: R97, puzzle: Exclusion 2)	17.6 nM	14.6 nM	–	–	–	–
GCCCGGGCAGGAUAUACGUGGCCCGGGUAACCGGGCCUCAGACAUGAGGAUCACCCAUGUAGAAGGGCCCGGGC [-44, -43.8 kcal, A 22%] (Eterna round: R97, puzzle: Exclusion 2)	18.1 nM	18.3 nM	–	–	–	–
GCCGAAAAUGUGAGGAUAUACCUAUGGAAACAUAGGUAGAAGGCACAUGAGGAUCACCCAUGUUCCUCAUCGGC [Mat - Exclusion 4 - Eli Mod - D17] (Eterna round: R97, puzzle: Brourd's mod of Exclusion 4)	729 nM	120 nM	–	–	–	–

Sequence	apparent KD of MS2 coat protein (input ligand: FMN 200 uM)	apparent KD of MS2 coat protein (input ligand: none)	apparent KD of MS2 coat protein [1]	apparent KD of MS2 coat protein [2]	apparent KD of MS2 coat protein [3]	apparent KD of MS2 coat protein [4]
GCCGAUUAAGUGAGGAUAUACCUAUGGAUACAUAGGUAGAAGGCACAUGAGGAUCACCCAUGUAUCCUAUCGGC [Eli bmx4 4.27] (Eterna round: R97, puzzle: Brourd's mod of Exclusion 4)	517 nM	59.8 nM	–	–	–	–
GCCGGAUAAGUGAGGAUAUGCCUAUGGAUACGUAGGCAGAAGGCACAUGAGGAUCACCCAUGUACCUCUCCGGC [JL-BMX4-4.25 Eli mod] (Eterna round: R97, puzzle: Brourd's mod of Exclusion 4)	116 nM	17.5 nM	–	–	–	–
GCCGUACAAGGAUAUACAUGAGGAUCACCCAUGUGUCUCCUCGAGAGCAAACGGCUCUGUAGAAGGUGUCGUAA [EX3 C.20] (Eterna round: R97, puzzle: Exclusion 3)	16.5 nM	15.6 nM	–	–	–	–
GCCUAAGCAGGAUAUUCAAUAUGUCACAUGAGGAUCACCCAUGUCCAGCGAAAGCUGGAGGGAGAAGGGCUUAGGC [Mat - Exclusion 5 - Eli mod - D100] (puzzle: Exclusion 5)	–	–	–	21.1 nM	101 nM	106 nM
GCCUACCAGCUAGGAUAUGCAGUACAGUAAAAUGUAGAAGGAGCACGAUCCAGACAUGAGGAUCACCCAUGUGGGCGGCAGGCA [Raartive] (Eterna round: R96, puzzle: Exclusion NG 1)	19.7 nM	22.8 nM	17 nM	–	–	–
GCCUCACAUGAGGAUCACCCAUGUCAGGAUAUACCCAUCCAGCGAAAUUAAAGCUGUAGUAGAAGGGACAUGCA [Bevebeis] (Eterna round: R97, puzzle: Exclusion 1)	53.7 nM	18.4 nM	–	–	–	–
GCCUGCUGGCGAGGAUAUCCUGUGCGGUUCCGGCUCGUGUCUGUUACAUGAGGAUCACCCAUGUGGGAGAAGGUGUCUGUGGCC [Design 99] (Eterna round: R96, puzzle: Exclusion NG 2)	17.7 nM	22.4 nM	15.7 nM	–	–	–
GCCUUAUCUGUCAGGAUAUACAAUAAAAUAAUUAUGUAGAAGGGACAUGAGGAUCACCCAUGUACAUUACAUUG [alecazam25] (Eterna round: R97, puzzle: Brourd's mod of Exclusion 4)	50 nM	22 nM	–	–	–	–
GCGAAAGCAAGCAAGUGAAACAUGAGGAUCACCCAUGUCCUCAUUUGUUCGUCUUAUAAGCUAUGCGAAAGCAUAGC [Sensor 3, v1 - 7] (puzzle: Sensor v3, turn-off variant 1)	–	–	–	18.4 nM	218 nM	19.4 nM
GCGAUUUCCGAGGAUAUCCUGCACACUAUCUAAGGAGAAGGCGGAACUUGAGGAUCACCCAAGUGCAUCCGAAU [Isusbe] (Eterna round: R97, puzzle: Exclusion 6)	135 nM	39.5 nM	–	–	–	–
GCGCACCUACCAAAAGGUAGGCCCACAUGAGGAUCACCCAUGUAGGAUAUCGAUUGCUUUGCAGUCGAGAAGGACGUGAUGCGC [JL ENG3 3.80 Mod 17] (Eterna round: R96, puzzle: Exclusion NG 3)	25.7 nM	18.3 nM	11.6 nM	–	–	–
GCGCACUAAGUGAGGAUAUCGAUUUCUUUAAGGAUCGAGAAGGCACAUGAGGAUCACCCAUGUUUGACGUGCGC [JR_BMOE4_Sub097] (puzzle: Brourd's mod of Exclusion 4)	–	–	–	–	15.5 nM	–
GCGCAGUCAGGAUAUGCCGCUGGCGAUCACCGUGGGCAAAGGCAGAAGGGACAUGAGGAUCACCCAUGUGGCGC [e4e Mirror Pins #2] (puzzle: Exclusion 4)	–	–	–	–	39 nM	–
GCGCUGCGAGGAUAUACAUGAGGAUCACCCAUGUGUCGGCAGCCAUGUUAGUACAAAUGUAGAAGGCGCGUAAA [EX3 #61] (Eterna round: R97, puzzle: Exclusion 3)	20.8 nM	18.3 nM	–	–	–	–
GCGGAUUAUGUAGGAUAUCGGUCAGUUUCUGAUCGAGAAGGACAUGAGGAUCACCCAUGUAAAUUCCUCGCUUUGUGAGGCCGC [JL ENG1 3.64] (Eterna round: R96, puzzle: Exclusion NG 1)	31.5 nM	17.8 nM	15.6 nM	–	–	–
GCGGAUUAUGUAGGAUAUCGGUCAGUUUCUGAUCGAGAAGGACAUGAGGAUCACCCAUGUAAAUUGCUCGCUUUGUGAGCCCGC [JL ENG1 3.63] (Eterna round: R96, puzzle: Exclusion NG 1)	34.5 nM	14.8 nM	12.4 nM	–	–	–
